Assay results as given in the supplement of paper PMC7877785.
± gives the uncertainty stated by the source.

Assay: self-splicing fitness, log relative to wild type (ln ratio); higher = more splicing; Tetrahymena group I intron in knt gene, E. coli kanamycin selection, DiMSum; sequences stand for … in CUCUCU…GGAGGGAAAAGUUAUCAGGCAUGCACCUGGUAGCUAGUCUUUAAACCAAUAGAUUGCAUCGGUUUAAAAGGCAAGACCGUCAAAUUGCGGGAAAGGGGUCAACAGCCGUUCAGUACCAAGUCUCAGGGGAAACUUUGAGAUGGCCUUGCAAAGGGUAUGGUAAUAAGCUGACGGACAUGGUCCUAACCACGCAGCCAAGUCCUAAGUCAACAGAUCUUCUGUUGAUAUGGAUGCAGUUCACAGACUAAAUGUCGGUCGGGGAAGAUGUAUUCUUCUCAUAAGAUAUAGUCGGACCUCUCCUUAAUGGGAGCUAGCGGAUGAAGUGAUGCAACACUGGAGCCGCUGGGAACUAAUUUGUAUGCGAAAGUAUAUUGAUUAGUUUUGGAGUACUCGUGGUCG
Summary of the method: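 Fitness was computed with DiMSum as the error-weighted combination of replicate fold changes, kanamycin versus none, each normalised to wild type. The library randomised all eight intron nucleotides of the P1ex region, with the intron placed in the knt kanamycin-resistance gene on pET-22b(+) in E. coli BL21(DE3). Six replicate transformations were grown overnight at 37°C or 30°C on LB agar with or without 25 μg/mL kanamycin, plus 100 μg/mL carbenicillin, 50 μM IPTG and 0.2% rhamnose. Pooled colonies were amplicon-sequenced on an Illumina HiSeq 2500.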

Sequence | self-splicing fitness (ln) (30 °C) | self-splicing fitness (ln) (37 °C)
UAGCAGCAAUAUUACGCUGG | -2.87 ± 0.13 | -2.45 ± 0.15
UAGCAGCAAUAUUACGGGAU | -4.22 ± 0.39 | -2.7 ± 0.26
UAGCAGCAAUAUUACGGGGC | -3.58 ± 0.21 | -3.17 ± 0.27
UAGCAGCAAUAUUACGGUGU | -3.53 ± 0.15 | -1.84 ± 0.15
UAGCAGCAAUAUUACGUACG | -1.2 ± 0.072 | -0.47 ± 0.1
UAGCAGCAAUAUUACGUGCC | -1.84 ± 0.17 | -1.2 ± 0.21
UAGCAGCAAUAUUACGUUCA | 0.0863 ± 0.062 | 0.0609 ± 0.1
UAGGAGCAAUAUUACGAGAC | -2.26 ± 0.29 | –
UAGGAGCAAUAUUACGAGGA | -2.78 ± 0.37 | –
UAGGAGCAAUAUUACGAGUG | -3.74 ± 0.33 | -1.43 ± 0.17
UAGGAGCAAUAUUACGAGUU | -3.51 ± 0.27 | -2.48 ± 0.33
UAGGAGCAAUAUUACGAUAG | -4.07 ± 0.28 | -1.95 ± 0.2
UAGGAGCAAUAUUACGAUCG | -1.65 ± 0.16 | -0.888 ± 0.21
UAGGAGCAAUAUUACGCCUG | -3.57 ± 0.47 | -1.23 ± 0.33
UAGGAGCAAUAUUACGCGAC | – | -1.74 ± 0.38
UAGGAGCAAUAUUACGCGGU | -1.52 ± 0.23 | –
UAGGAGCAAUAUUACGGCUU | -4.37 ± 0.28 | -3.13 ± 0.4
UAGGAGCAAUAUUACGGGUC | -2.64 ± 0.19 | –
UAGGAGCAAUAUUACGGUGA | – | -1.08 ± 0.27
UAGGAGCAAUAUUACGGUGU | -3.4 ± 0.3 | -2.9 ± 0.43
UAGGAGCAAUAUUACGUAAC | -4.94 ± 0.41 | -2.48 ± 0.22
UAGGAGCAAUAUUACGUAAG | -3.22 ± 0.16 | -2.01 ± 0.16
UAGGAGCAAUAUUACGUAUG | -3.04 ± 0.22 | -1.71 ± 0.16
UAGGAGCAAUAUUACGUUCG | -0.918 ± 0.2 | -0.576 ± 0.19
UAGGAGCAAUAUUACGUUUA | -2.18 ± 0.27 | -0.145 ± 0.17
UAGUAGCAAUAUUACGAACA | – | -0.405 ± 0.42
UAGUAGCAAUAUUACGACAA | -0.402 ± 0.15 | -0.175 ± 0.14

Sequence | self-splicing fitness (ln) (30 °C) | self-splicing fitness (ln) (37 °C)
UAGUAGCAAUAUUACGACAC | – | -1.67 ± 0.26
UAGUAGCAAUAUUACGAGAA | – | -1.76 ± 0.43
UAGUAGCAAUAUUACGAUCG | -0.771 ± 0.095 | 0.251 ± 0.12
UAGUAGCAAUAUUACGCGCG | -0.283 ± 0.077 | -0.281 ± 0.1
UAGUAGCAAUAUUACGCGCU | -1.46 ± 0.16 | -0.161 ± 0.16
UAGUAGCAAUAUUACGCGUG | -1.03 ± 0.12 | -0.705 ± 0.15
UAGUAGCAAUAUUACGCUGA | -2.25 ± 0.39 | -0.637 ± 0.11
UAGUAGCAAUAUUACGCUUA | -1.15 ± 0.14 | -0.806 ± 0.13
UAGUAGCAAUAUUACGGCAU | -2.2 ± 0.15 | -0.67 ± 0.16
UAGUAGCAAUAUUACGGGCU | -1.39 ± 0.2 | -2.47 ± 0.27
UAGUAGCAAUAUUACGGGGA | -2.44 ± 0.33 | -3.25 ± 0.47
UAGUAGCAAUAUUACGGUAC | -3.85 ± 0.48 | –
UAGUAGCAAUAUUACGGUCG | -0.566 ± 0.097 | -0.103 ± 0.12
UAGUAGCAAUAUUACGUAAU | -2.43 ± 0.13 | -2.19 ± 0.13
UAGUAGCAAUAUUACGUCAA | -2.07 ± 0.23 | -2.44 ± 0.18
UAGUAGCAAUAUUACGUCCA | -0.915 ± 0.37 | –
UAGUAGCAAUAUUACGUCGC | -4.1 ± 0.43 | -2.3 ± 0.28
UAGUAGCAAUAUUACGUGAC | -2.58 ± 0.15 | -2.47 ± 0.18
UAGUAGCAAUAUUACGUGGC | – | -2.59 ± 0.44
UAUAAGCAAUAUUACGAAGU | -3.7 ± 0.35 | -2.71 ± 0.38
UAUAAGCAAUAUUACGACCG | -0.137 ± 0.12 | -0.1 ± 0.16
UAUAAGCAAUAUUACGAGAU | -4.28 ± 0.31 | -2.54 ± 0.28
UAUAAGCAAUAUUACGCAUC | -3.74 ± 0.2 | -2.38 ± 0.17
UAUAAGCAAUAUUACGCCUC | -2.74 ± 0.38 | -2.08 ± 0.36
UAUAAGCAAUAUUACGCGUG | -1 ± 0.057 | -0.488 ± 0.075
UAUAAGCAAUAUUACGCUAU | -3.91 ± 0.28 | -1.92 ± 0.18
UAUAAGCAAUAUUACGCUCC | -1.29 ± 0.24 | -1.02 ± 0.28

Sequence | self-splicing fitness (ln) (30 °C) | self-splicing fitness (ln) (37 °C)
UAUAAGCAAUAUUACGCUUC | -3.58 ± 0.38 | –
UAUAAGCAAUAUUACGGAGC | – | -2.14 ± 0.28
UAUAAGCAAUAUUACGGGAA | -2.77 ± 0.2 | -1.5 ± 0.18
UAUAAGCAAUAUUACGGGUC | -3.27 ± 0.34 | -1.78 ± 0.24
UAUAAGCAAUAUUACGGUUU | -2.58 ± 0.11 | -1.24 ± 0.099
UAUAAGCAAUAUUACGUCUA | 0.561 ± 0.077 | 0.494 ± 0.1
UAUAAGCAAUAUUACGUGCA | -0.333 ± 0.085 | -0.0529 ± 0.1
UAUAAGCAAUAUUACGUGGC | -3.47 ± 0.32 | -2.73 ± 0.44
UAUAAGCAAUAUUACGUUAG | -2.08 ± 0.14 | -0.812 ± 0.14
UAUCAGCAAUAUUACGACAA | -0.495 ± 0.086 | 0.237 ± 0.097
UAUCAGCAAUAUUACGACUA | 0.123 ± 0.068 | 0.517 ± 0.095
UAUCAGCAAUAUUACGACUU | -0.502 ± 0.067 | -0.0466 ± 0.074
UAUCAGCAAUAUUACGAGAC | -2.38 ± 0.33 | -1.75 ± 0.44
UAUCAGCAAUAUUACGAGUG | -0.353 ± 0.058 | -0.197 ± 0.072
UAUCAGCAAUAUUACGCAAU | -1.96 ± 0.11 | -0.74 ± 0.1
UAUCAGCAAUAUUACGCAUU | -1.42 ± 0.076 | -0.197 ± 0.09
UAUCAGCAAUAUUACGCCUG | -0.368 ± 0.1 | -0.425 ± 0.1
UAUCAGCAAUAUUACGCGGC | -2.77 ± 0.31 | -1.62 ± 0.24
UAUCAGCAAUAUUACGCUAA | -0.647 ± 0.084 | 0.529 ± 0.099
UAUCAGCAAUAUUACGGAUC | -0.475 ± 0.11 | -0.265 ± 0.13
UAUCAGCAAUAUUACGGCCG | -0.163 ± 0.11 | 0.391 ± 0.16
UAUCAGCAAUAUUACGGCUA | 0.13 ± 0.085 | 0.848 ± 0.12
UAUCAGCAAUAUUACGGGAA | -1.65 ± 0.1 | -0.124 ± 0.11
UAUCAGCAAUAUUACGGGGU | -3.6 ± 0.2 | -2.48 ± 0.17
UAUCAGCAAUAUUACGGUAA | -0.552 ± 0.13 | -0.308 ± 0.11
UAUCAGCAAUAUUACGGUCG | -0.0229 ± 0.059 | 0.259 ± 0.066
